Results from PMC9482650, “Quantitative fragmentomics allow affinity mapping of interactomes” (Nature Communications, 2022).

T1: RADIL, Q96JH8
T1 sequence (Q96JH8 971-1071, limits assumed, looked up): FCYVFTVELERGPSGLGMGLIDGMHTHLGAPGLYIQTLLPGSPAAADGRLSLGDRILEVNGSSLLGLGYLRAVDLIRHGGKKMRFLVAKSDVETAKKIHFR

T2: PARD3B_1, Q8TEW8
T2 sequence (Q8TEW8 196-299, limits assumed, looked up): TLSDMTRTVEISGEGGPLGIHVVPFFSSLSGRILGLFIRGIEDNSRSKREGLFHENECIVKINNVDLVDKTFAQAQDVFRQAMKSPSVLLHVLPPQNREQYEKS

T3: SNTG1, Q9NSN8
T3 sequence (Q9NSN8 52-150, limits assumed, looked up): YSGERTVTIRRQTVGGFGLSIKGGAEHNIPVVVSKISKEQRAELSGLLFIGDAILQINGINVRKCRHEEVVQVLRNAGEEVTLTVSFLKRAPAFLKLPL

T4: PDZD7_3, Q9H5P4
T4 sequence (Q9H5P4 857-944, limits assumed, looked up): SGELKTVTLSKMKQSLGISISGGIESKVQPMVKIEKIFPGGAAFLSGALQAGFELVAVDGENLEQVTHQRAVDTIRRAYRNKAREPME

T5: PCLO, Q9Y6V0
T5 sequence (Q9Y6V0 4491-4600, limits assumed, looked up): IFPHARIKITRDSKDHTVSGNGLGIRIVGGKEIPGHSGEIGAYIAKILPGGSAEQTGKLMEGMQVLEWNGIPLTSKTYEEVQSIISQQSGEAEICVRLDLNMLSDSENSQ

T6: SHANK1, Q9Y566
T6 sequence (Q9Y566 658-767, limits assumed, looked up): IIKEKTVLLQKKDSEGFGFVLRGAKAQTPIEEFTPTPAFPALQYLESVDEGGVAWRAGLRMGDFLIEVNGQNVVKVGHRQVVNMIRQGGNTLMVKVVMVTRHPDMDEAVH

T7: APBA3_1, O96018
T7 sequence (O96018 389-490, limits assumed, looked up): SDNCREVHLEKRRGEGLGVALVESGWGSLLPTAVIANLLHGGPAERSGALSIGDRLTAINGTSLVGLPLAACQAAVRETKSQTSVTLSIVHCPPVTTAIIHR

T8: DVL3, Q92997
T8 sequence (Q92997 244-331, limits assumed, looked up): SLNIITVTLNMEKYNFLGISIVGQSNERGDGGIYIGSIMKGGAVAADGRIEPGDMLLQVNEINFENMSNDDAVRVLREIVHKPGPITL

T9: MPDZ_5, O75970
T9 sequence (O75970 695-796, limits assumed, looked up): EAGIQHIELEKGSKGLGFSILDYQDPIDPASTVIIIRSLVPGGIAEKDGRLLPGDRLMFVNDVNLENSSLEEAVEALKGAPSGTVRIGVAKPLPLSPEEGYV

T10: MPDZ_10, O75970
T10 sequence (O75970 1624-1722, limits assumed, looked up): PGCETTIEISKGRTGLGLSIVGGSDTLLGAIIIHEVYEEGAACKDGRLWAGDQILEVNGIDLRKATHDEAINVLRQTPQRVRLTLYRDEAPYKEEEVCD

T11: LNX2_2, Q8N448
T11 sequence (Q8N448 334-432, limits assumed, looked up): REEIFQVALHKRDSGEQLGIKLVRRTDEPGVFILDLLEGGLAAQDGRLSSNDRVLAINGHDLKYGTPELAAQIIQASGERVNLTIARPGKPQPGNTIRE

T12: SNTA1, Q13424
T12 sequence (Q13424 82-180, limits assumed, looked up): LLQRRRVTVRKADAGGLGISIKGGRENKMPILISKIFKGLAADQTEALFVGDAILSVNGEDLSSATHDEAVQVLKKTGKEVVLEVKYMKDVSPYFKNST

T13: GRIP1_3, Q9Y3R0
T13 sequence (Q9Y3R0 247-346, limits assumed, looked up): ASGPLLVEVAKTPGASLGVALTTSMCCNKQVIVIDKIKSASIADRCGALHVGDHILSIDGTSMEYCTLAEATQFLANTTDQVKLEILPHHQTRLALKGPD


Key:
Test in all cases: holdup assay
Parameters in all cases: key: below the threshold = too weak to quantify, mostly under pKd 3.1 to 4
Settings in all cases: plain residues with an end cap or a label only (N-terminal biotin on a linker: ado-ado)
IL16_1, Q14005 = target: IL16_1, Q14005
CASK, O14936 = target: CASK, O14936
RADIL, Q96JH8 = target: T1, RADIL, Q96JH8
PARD3B_1, Q8TEW8 = target: T2, PARD3B_1, Q8TEW8
DLG4_2, P78352 = target: DLG4_2, P78352
SNTG1, Q9NSN8 = target: T3, SNTG1, Q9NSN8
PDZD7_3, Q9H5P4 = target: T4, PDZD7_3, Q9H5P4
PCLO, Q9Y6V0 = target: T5, PCLO, Q9Y6V0
GRID2IP_1, A4D2P6 = target: GRID2IP_1, A4D2P6
SHANK1, Q9Y566 = target: T6, SHANK1, Q9Y566
APBA3_1, O96018 = target: T7, APBA3_1, O96018
Inadl_3, Q8NI35 = target: Inadl_3, Q8NI35
PDZRN4_1, Q6ZMN7 = target: PDZRN4_1, Q6ZMN7
DVL3, Q92997 = target: T8, DVL3, Q92997
FRMPD2_3, Q68DX3 = target: FRMPD2_3, Q68DX3
MPDZ_5, O75970 = target: T9, MPDZ_5, O75970
MPDZ_10, O75970 = target: T10, MPDZ_10, O75970
LNX2_2, Q8N448 = target: T11, LNX2_2, Q8N448
LNX1_1, Q8TBB1 = target: LNX1_1, Q8TBB1
SNTA1, Q13424 = target: T12, SNTA1, Q13424
MAGI2_4, Q86UL8 = target: MAGI2_4, Q86UL8
GRIP1_3, Q9Y3R0 = target: T13, GRIP1_3, Q9Y3R0
LIMK2, P53671 = target: LIMK2, P53671
MAGI1_2, Q96QZ7 = target: MAGI1_2, Q96QZ7
Chain of MAGI1_2, Q96QZ7 (Q96QZ7 456-580): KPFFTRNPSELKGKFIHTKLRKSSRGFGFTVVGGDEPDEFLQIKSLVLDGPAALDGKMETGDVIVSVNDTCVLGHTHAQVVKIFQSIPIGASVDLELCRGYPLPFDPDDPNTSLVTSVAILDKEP

Chain of CASK, O14936 (O14936 487-570): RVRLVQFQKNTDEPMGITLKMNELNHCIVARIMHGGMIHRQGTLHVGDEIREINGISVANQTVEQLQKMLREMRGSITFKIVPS
Chain of Inadl_3, Q8NI35 (Q8NI35 359-469): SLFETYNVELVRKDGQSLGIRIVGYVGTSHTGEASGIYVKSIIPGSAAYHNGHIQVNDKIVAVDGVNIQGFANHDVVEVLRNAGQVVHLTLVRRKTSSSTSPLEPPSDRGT
Chain of DLG4_2, P78352 (P78352 155-259): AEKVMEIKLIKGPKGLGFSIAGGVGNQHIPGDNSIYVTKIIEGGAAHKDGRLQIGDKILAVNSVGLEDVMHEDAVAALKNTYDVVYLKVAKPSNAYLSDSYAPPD
Chain of IL16_1, Q14005 (Q14005 210-306): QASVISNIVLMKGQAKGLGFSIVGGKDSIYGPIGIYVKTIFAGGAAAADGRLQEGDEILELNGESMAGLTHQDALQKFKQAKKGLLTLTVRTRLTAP
Chain of LIMK2, P53671 (P53671 143-248): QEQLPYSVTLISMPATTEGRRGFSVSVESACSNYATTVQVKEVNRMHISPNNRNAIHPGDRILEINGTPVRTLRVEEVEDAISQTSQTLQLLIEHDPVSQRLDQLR
Chain of FRMPD2_3, Q68DX3 (Q68DX3 1073-1166): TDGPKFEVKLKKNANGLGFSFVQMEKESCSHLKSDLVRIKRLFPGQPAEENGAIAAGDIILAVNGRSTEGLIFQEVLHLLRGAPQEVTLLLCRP
Chain of PDZRN4_1, Q6ZMN7 (Q6ZMN7 213-318): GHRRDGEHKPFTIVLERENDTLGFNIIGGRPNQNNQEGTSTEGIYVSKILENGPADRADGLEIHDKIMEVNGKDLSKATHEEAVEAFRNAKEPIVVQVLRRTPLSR
Chain of MAGI2_4, Q86UL8 (Q86UL8 772-865): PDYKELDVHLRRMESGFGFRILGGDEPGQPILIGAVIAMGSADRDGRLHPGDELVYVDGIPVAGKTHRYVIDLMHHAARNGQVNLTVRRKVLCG
Chain of LNX1_1, Q8TBB1 (Q8TBB1 261-371): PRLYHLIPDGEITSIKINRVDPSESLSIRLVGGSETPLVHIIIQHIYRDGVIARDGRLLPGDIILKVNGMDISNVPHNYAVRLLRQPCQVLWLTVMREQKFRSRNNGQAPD
Chain of GRID2IP_1, A4D2P6 (A4D2P6 1-87): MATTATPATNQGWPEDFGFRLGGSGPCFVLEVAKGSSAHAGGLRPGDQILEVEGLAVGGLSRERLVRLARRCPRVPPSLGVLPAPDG

Binder | pKd (IL16_1, Q14005) | pKd (CASK, O14936) | pKd (RADIL, Q96JH8) | pKd (PARD3B_1, Q8TEW8) | pKd (DLG4_2, P78352) | pKd (SNTG1, Q9NSN8) | pKd (PDZD7_3, Q9H5P4) | pKd (PCLO, Q9Y6V0) | pKd (GRID2IP_1, A4D2P6) | pKd (SHANK1, Q9Y566) | pKd (APBA3_1, O96018) | pKd (Inadl_3, Q8NI35) | pKd (PDZRN4_1, Q6ZMN7) | pKd (DVL3, Q92997) | pKd (FRMPD2_3, Q68DX3) | pKd (MPDZ_5, O75970) | pKd (MPDZ_10, O75970) | pKd (LNX2_2, Q8N448) | pKd (LNX1_1, Q8TBB1) | pKd (SNTA1, Q13424) | other results
QSPPNIYYKV [EFNB3, Q15768] | below the threshold | below the threshold | 4.29 | 3.77 | 3.54 | below the threshold | below the threshold | below the threshold | below the threshold | below the threshold | below the threshold | 3.5 | below the threshold | below the threshold | below the threshold | below the threshold | below the threshold | 4.27 | 3.86 | below the threshold | pKd (MAGI2_4, Q86UL8): 3.69; pKd (GRIP1_3, Q9Y3R0): below the threshold; pKd (LIMK2, P53671): below the threshold; pKd (MAGI1_2, Q96QZ7): below the threshold
ETSLVKGIDI [DENND5A, Q6IQ26] | below the threshold | below the threshold | below the threshold | 4.23 | below the threshold | below the threshold | below the threshold | below the threshold | below the threshold | below the threshold | below the threshold | 3.53 | below the threshold | below the threshold | 3.57 | below the threshold | below the threshold | 4.13 | 3.79 | below the threshold | pKd (MAGI2_4, Q86UL8): 3.66; pKd (GRIP1_3, Q9Y3R0): below the threshold; pKd (LIMK2, P53671): below the threshold; pKd (MAGI1_2, Q96QZ7): below the threshold
SRPRPDDLEI [GJA1, P17302] | below the threshold | below the threshold | below the threshold | below the threshold | below the threshold | below the threshold | below the threshold | below the threshold | below the threshold | below the threshold | below the threshold | 3.47 | below the threshold | below the threshold | below the threshold | below the threshold | below the threshold | below the threshold | below the threshold | below the threshold | pKd (MAGI2_4, Q86UL8): below the threshold; pKd (GRIP1_3, Q9Y3R0): below the threshold; pKd (LIMK2, P53671): below the threshold; pKd (MAGI1_2, Q96QZ7): below the threshold

More lines, main results first:

pKd (IL16_1, Q14005) | pKd (CASK, O14936) | pKd (RADIL, Q96JH8) | pKd (PARD3B_1, Q8TEW8) | pKd (DLG4_2, P78352) | pKd (SNTG1, Q9NSN8) | pKd (PDZD7_3, Q9H5P4) | pKd (PCLO, Q9Y6V0) | pKd (GRID2IP_1, A4D2P6) | pKd (SHANK1, Q9Y566) | pKd (APBA3_1, O96018) | pKd (Inadl_3, Q8NI35) | pKd (PDZRN4_1, Q6ZMN7) | pKd (DVL3, Q92997) | pKd (FRMPD2_3, Q68DX3) | pKd (MPDZ_5, O75970) | pKd (MPDZ_10, O75970) | pKd (LNX2_2, Q8N448) | pKd (LNX1_1, Q8TBB1) | pKd (SNTA1, Q13424) | Binder | other results
below the threshold | below the threshold | below the threshold | 4.16 | below the threshold | below the threshold | 4.22 | below the threshold | below the threshold | 4.65 | below the threshold | below the threshold | below the threshold | below the threshold | below the threshold | below the threshold | below the threshold | below the threshold | below the threshold | below the threshold | ANGLMQTSKL [SSTR5, P35346] | pKd (MAGI2_4, Q86UL8): below the threshold; pKd (GRIP1_3, Q9Y3R0): below the threshold; pKd (LIMK2, P53671): below the threshold; pKd (MAGI1_2, Q96QZ7): below the threshold
below the threshold | below the threshold | below the threshold | 4.8 | below the threshold | below the threshold | below the threshold | below the threshold | below the threshold | below the threshold | below the threshold | below the threshold | below the threshold | below the threshold | below the threshold | below the threshold | below the threshold | 3.74 | below the threshold | below the threshold | NVYGTESVKI [GRIA3, P42263] | pKd (MAGI2_4, Q86UL8): below the threshold; pKd (GRIP1_3, Q9Y3R0): below the threshold; pKd (LIMK2, P53671): below the threshold; pKd (MAGI1_2, Q96QZ7): below the threshold
below the threshold | below the threshold | 5.81 | below the threshold | 5.12 | 3.71 | 5.26 | below the threshold | below the threshold | below the threshold | below the threshold | below the threshold | below the threshold | 3.96 | below the threshold | 4.37 | 4.29 | 5.43 | 4.3 | 4.97 | NASRTRITFV [MCM7, P33993] | pKd (MAGI2_4, Q86UL8): 3.82; pKd (GRIP1_3, Q9Y3R0): below the threshold; pKd (LIMK2, P53671): below the threshold; pKd (MAGI1_2, Q96QZ7): 4.71
